In publication PMC6614797 one finds percent of S4 coeluted with the rrnG-TAC, percent of SuhB coeluted with the rrnG-TAC and Kd data, which are given here for two substances.

Test [1] deals with RNA polymerase (E. coli) (UniProt P0A7Z4). Kind of test: SEC. A general note: Size exclusion chromatography separates by hydrodynamic size, large species first.
Test [2] addresses NusA-AR2^D443C labeled with fluorescein-5-maleimide (E. coli) (UniProt P0AFF6). Put plainly: fluorescence polarisation. (In general: Fluorescence polarisation rises when a labelled molecule tumbles more slowly, as on binding a larger partner.)

pKd: −log10 of the molar value.

With “ribosomal protein S4 (from UniProt P0A7V8 1-206) (natural protein)”, the percent of S4 coeluted with the rrnG-TAC in test [1] is 25%.

What is called pKd is the Kd on a negative log10 scale, so that one unit is a factor of ten. Read a low pKd as a large Kd. In test [1], “inositol monophosphatase SuhB (from UniProt P0ADG4 1-267) (natural protein)” came in with a percent of SuhB coeluted with the rrnG-TAC of 20%. The same substance gave a negative logarithm of the Kd (pKd) in test [2] of 4.08.
